As a reminder, the Km is the substrate concentration at which the rate is half of its maximum. A word on the kcat: it is the maximal rate divided by the concentration of active sites.

Substrate in data set [1]: O=C(O)CCC(=O)C(=O)O
Kind of data set: purified protein. The note with it: 0.2 mM NADH, 0.2 mM yNA, pH 8, 28 °C.

Substrate in data set [2]: CC(=O)C(=O)O
Description: purified protein. The class given is biochemical, Staphylococcus aureus. The note with it: 0.2 mM NADPH, 0.2 mM xNA, pH 7, 28 °C.

B1: PaCntM (Pseudomonas aeruginosa PAO1) (protein)
chain: MNAADESLGNVLLVGLGAVAIQVALDLRRHGAGRLGALNHPGRRSQRIAEALARGACLQLEGQGQHRWLSGNAALDVFHQDPAELRDDWQTLVLCVPADSYLDVVRGLPWERLGGVRTLLLVSAFIGANLLVRSALPAGCQATVLSLSSYYAATKVIDETQPLRALTKAVKRRVYLGSSRPDCPARETWRRVLAGSGVEVVPLATPEAAEGRNVTTYVHSPFFLGEFALARILSEQGPPGFMYKLYPEGPITPGAIGAMRRLWCELSELLRRMGAEPLNLLRFLNDDNYPVHETMLPRASIDGFAEAGAERQEYLLFVRYAALLVDPFSPADEQGRHFDFSAVPFRRVSRDEDGLWRLPRVPLEDYRKLALIVALAAHFDLAMPQARSLLASYENAVSRFIDCQGASQCHPSLYPIDSRPAADAIYRQWCSTC
B1: in the data set “purified protein [1]”, the Km was 133 ± 39 µM and the kcat was determined as 0.27 ± 0.02 s⁻¹.

B2: SaCntM (Staphylococcus aureus subsp. aureus Mu50) (protein)
chain: MSKLLMIGTGPVAIQLANICYLKSDYEIDMVGRASTSEKSKRLYQAYKKEKQFEVKIQNEAHQHLEGKFEINRLYKDVKNVKGEYETVVMACTADAYYDTLQQLSLETLQSVKHVILISPTFGSQMIVEQFMSKFSQDIEVISFSTYLGDTRIVDKEAPNHVLTTGVKKKLYMGSTHSNSTMCQRISALAEQLKIQLEVVESPLHAETRNSSLYVHPPLFMNDFSLKAIFEGTDVPVYVYKLFPEGPITMTLIREMRLMWKEMMAILQAFRVPSVNLLQFMVKENYPVRPETLDEGDIEHFEILPDILQEYLLYVRYTAILIDPFSQPDENGHYFDFSAVPFKQVYKNEQDVVQIPRMPSEDYYRTAMIQHIGKMLGIKTPMIDQFLTRYEASCQAYKDMHQDQQLSSQFNTNLFEGDKALVTKFLEINRTLS
Take B2: in the data set “purified protein [2]”, the Km is reported as 51 ± 6 µM and the kcat was 1.00 ± 0.02 s⁻¹.

(Values after publication doi:10.1101/641969v1.)
